What was measured:
[1] = system: 1 cm incisional rat wounds; assay: Reduction in scarring of rat wounds treated with IL-10 in two incidences of treatment; format: in vivo; conditions: for percentage reduction in scarring compared to placebo control: approximately 24 hours apart
Protocol: FIG. 13 is a graph showing the percentage reduction in scarring, as compared to placebo control, achieved in scars formed on healing of 1 cm incisional rat wounds treated with IL-10 administered by means of intradermal injection in two incidences of treatment, the first prior to wounding and the second approximately 24 hours later. Wounds dosed with IL-10 received either two injections of 500 ng/100 μl IL-10, two injections of 1000 ng/100 μl IL-10, or an escalating dose regime in accordance with the present invention, in which the first injection comprised 500 ng/100 μl IL-10 and the second injection comprised 1000 ng/100 μl IL-10.
Arrow heads mark the ends of the scars 70 days post wounding.

[2] = system: inflammatory cells in 1 cm incisional rat wounds; assay: Percentage of inflammatory cells (CD68 staining) in rat wounds; format: in vivo; conditions: 3 days post treatment
Text: Wounds were excised from the experimental rats at 3 days post treatment, fixed in 10% (v/v) buffered formal saline, processed for histology and stained with CD68 to assess inflammatory cell numbers.

B1: IL-10: interleukin-10, anti-scarring agent; amino acid sequence of human IL-10 in Sequence ID No. 3 (protein, listed as Homo sapiens)
chain: MSPGQGTQSENSCTHFPGNLPNMLRDLRDAFSRVKTFFQMKDQLDNLLLKESLLEDFKGYLGCQALSEMIQFYLEEVMPQAENQDPDIKAHVNSLGENLKTLRLRLRRCHRFLPCENKSKAVEQVKNAFNKLQEKGIYKAMSEFDIFINYIEAYMTMKIRN
inhibition of scarring, macroscopic images ([1]; escalating 500 then 1000 ng/100 μl versus 500 ng/100 μl twice, 70 days post wounding): greater inhibition of scarring | reduction in scarring versus constant doses ([1]; escalating: 500 ng/100 μl then 1000 ng/100 μl approximately 24 hours later): much larger magnitude of effect | percentage reduction in scarring compared to placebo control ([1]; two injections of 500 ng/100 μl): 27.5% | percentage reduction in scarring compared to placebo control ([1]; two injections of 1000 ng/100 μl): 22.8% | infiltration of inflammatory cells into the wound compared to controls [2]: reduces infiltration of inflammatory cells | inflammatory cell numbers versus same dose given twice ([2]; escalating: 500 ng/100 μl then 1000 ng/100 μl): surprisingly marked decrease in inflammatory cell numbers

— US20100266532A1, “METHODS FOR INHIBITING SCARRING” (Renovo Limited, priority 2007, published 2010)
